Patent US20220177587A1, “METHODS AND USES OF VARIANT CD80 FUSION PROTEINS AND RELATED CONSTRUCTS” (Alpine Immune Sciences, Inc., priority 2018, published 2022)
Where a chain is given by its changes, count along the chain named. Names and notes keep the numbering of the source.

B1: CD80 E35D/T41S/D46E/M47I/V68M/K93R/E95V IgV-Fc (Fc fusion)
chain: VIHVTKEVKEVATLSCGHNVSVEELAQTRIYWQKDKKMVLSMMSGEINIWPEYKNRTIFDITNNLSIMILALRPSDEGTYECVVLKYEKDAFRRVHLAEVTLSVKAD
B2: CD80 E35D/M47V/N48K/V68M/L85M IgV-Fc (Fc fusion)
chain: B1 chain with S41T, E46D, I47V, N48K, L85M, R93K, V95E
B3: CD80 H18Y/E35D/V68M/T79M/L85M IgV-Fc (Fc fusion)
chain: B1 chain with H18Y, S41T, E46D, I47M, T79M, L85M, R93K, V95E
B4: CD80 T13R/Q33R/E35D/M47L/V68M/L85M IgV-Fc (Fc fusion)
chain: B1 chain with T13R, Q33R, S41T, E46D, I47L, L85M, R93K, V95E
B5: CD80 E35D/M47V/N48K/V68M/A71G/L85M IgV-Fc (Fc fusion)
chain: B1 chain with S41T, E46D, I47V, N48K, A71G, L85M, R93K, V95E
B6: CD80 E35D/M47L/Y53F/V68M/A71G/K93R/E95V IgV-Fc (Fc fusion)
chain: B1 chain with S41T, E46D, I47L, Y53F, A71G
B7: CD80 T13R/Q33R/E35D/M47L/V68M IgV-Fc (Fc fusion)
chain: B1 chain with T13R, Q33R, S41T, E46D, I47L, R93K, V95E
B8: CD80 H18Y/E35D/M47V/V68M/L85M IgV-Fc (Fc fusion)
chain: B1 chain with H18Y, S41T, E46D, I47V, L85M, R93K, V95E
B9: CD80 T13R/Q33R/E35D/M38I/M47L/V68M/E95V/L97Q IgV-Fc (Fc fusion)
chain: B1 chain with T13R, Q33R, M38I, S41T, E46D, I47L, R93K, L97Q
B10: variant CD80 IgV-Fc E35D/T41S/M43V/M47I/L70M/A71G (Fc fusion)
chain: B1 chain with M43V, E46D, M68V, L70M, A71G, R93K, V95E
B11: variant CD80 IgV-Fc E35D/M47I/L85Q/D90G (Fc fusion)
chain: B1 chain with S41T, E46D, M68V, L85Q, D90G, R93K, V95E
B12: variant CD80 IgV-Fc E35D/M47I/T62S/L85Q (Fc fusion)
chain: B1 chain with S41T, E46D, T62S, M68V, L85Q, R93K, V95E
B13: variant CD80 IgV-Fc E35D/D46E/M47V/V68M/D90G/K93E (Fc fusion)
chain: B1 chain with S41T, I47V, D90G, R93E, V95E
B14: variant CD80 IgV-Fc E35D/M47L/A71G/L85M/F92Y (Fc fusion)
chain: B1 chain with S41T, E46D, I47L, M68V, A71G, L85M, F92Y, R93K, V95E
B15: variant CD80 IgV-Fc R29H/E35D/M43V/M47I/I49V (Fc fusion)
chain: B1 chain with R29H, S41T, M43V, E46D, I49V, M68V, R93K, V95E
B16: variant CD80 IgV-Fc Q33L/E35D/M47I/N48D/A71G (Fc fusion)
chain: B1 chain with Q33L, S41T, E46D, N48D, M68V, A71G, R93K, V95E
B17: variant CD80 IgV-Fc E35D/D46E/M47V/N63D/L85Q (Fc fusion)
chain: B1 chain with S41T, I47V, N63D, M68V, L85Q, R93K, V95E
B18: variant CD80 IgV-Fc Q27H/E35D/M47I/L85Q/D90G (Fc fusion)
chain: B1 chain with Q27H, S41T, E46D, M68V, L85Q, D90G, R93K, V95E
B19: CD80 IgV-Fc S15T/H18Y/E35D/M47V/T62A/N64S/A71G/L85Q/D90N (Fc fusion)
chain: VIHVTKEVKEVATLTCGYNVSVEELAQTRIYWQKDKKMVLTMMSGDVNIWPEYKNRTIFDIANSLSIVILGLRPSDEGTYECVVQKYEKNAFKREHLAEVTLSVKAD
B20: CD80 IgV-Fc H18Y/V22A/E35D/T41S/M47V/T62N/A71G/A91G (Fc fusion)
chain: B19 chain with T15S, V22A, T41S, A62N, S64N, Q85L, N90D, A91G
B21: CD80 IgV-Fc E35D/D46E/M47L/V68M/L85Q/F92L (Fc fusion)
chain: B1 chain with S41T, I47L, L85Q, F92L, R93K, V95E

Target: human CTLA-4 (human) (UniProt P16410)
Sequence (P16410 36-223): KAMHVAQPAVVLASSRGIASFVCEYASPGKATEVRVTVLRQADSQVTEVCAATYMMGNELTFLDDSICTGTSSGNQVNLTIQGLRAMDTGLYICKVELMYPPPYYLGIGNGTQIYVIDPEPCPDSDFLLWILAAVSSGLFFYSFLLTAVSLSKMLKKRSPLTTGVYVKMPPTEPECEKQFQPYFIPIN
Experiment: flow cytometry, CHO cells expressing CTLA4

Binder | Fold change to WT CD80 | MFI at 33.3 nM
B1 | 10.5 fold | 18400 MFI
B2 | 8.9 fold | 15600 MFI
B3 | 9.3 fold | 16300 MFI
B4 | 7.7 fold | 13400 MFI
B5 | 9.5 fold | 16600 MFI
B6 | 9.1 fold | 16000 MFI
B7 | 11.8 fold | 20700 MFI
B8 | 10.5 fold | 18400 MFI
B9 | 11.8 fold | 20700 MFI

Target: human CTLA-4 (human) (UniProt P16410)
Experiment: flow cytometry, CHO cells expressing huCTLA4

Binder | MFI at 33.3 nM
B10 | 249000 MFI
B11 | 248000 MFI
B12 | 301000 MFI
B13 | 273000 MFI
B14 | 216000 MFI
B15 | 4690 MFI
B16 | 117000 MFI
B17 | 274000 MFI
B18 | 258000 MFI

Target: human CTLA-4 (human) (UniProt P16410)
Experiment: flow cytometry, CHO cells stably expressing CTLA4

Binder | Fold change to WT CD80 | MFI at 33.3 nM
B19 | 10.7 fold | 11000 MFI
B20 | 10 fold | 10300 MFI
B21 | 0.2 fold | 214 MFI

Target: CD28 (human) (UniProt P10747)
Experiment: flow cytometry, Jurkat/IL2 reporter cells (CD28)

Binder | MFI at 33.3 nM
B10 | 2700 MFI
B11 | 4100 MFI
B12 | 1760 MFI
B13 | 27100 MFI
B14 | 2460 MFI
B15 | 336 MFI
B16 | 644 MFI
B17 | 1330 MFI
B18 | 3510 MFI

Target: CD28 (human) (UniProt P10747)
Experiment: flow cytometry, Jurkat cells (CD28)

Binder | Fold change to WT CD80 | MFI at 33.3 nM | Fold change to WT
B1 | 15.2 fold | 476 MFI | 
B2 | 7.8 fold | 245 MFI | 
B3 | 33.2 fold | 1040 MFI | 
B19 |  | 1070 MFI | 25.9 fold
B4 | 3.6 fold | 112 MFI | 
B20 |  | 1590 MFI | 38.5 fold
B5 | 9.6 fold | 302 MFI | 
B6 | 12.2 fold | 383 MFI | 
B7 | 0.4 fold | 14.1 MFI | 
B21 |  | 15 MFI | 0.4 fold
B8 | 11.9 fold | 373 MFI | 
B9 | 35.4 fold | 1110 MFI | 

Target: human PD-L1 (human) (UniProt Q9NZQ7)
Sequence (Q9NZQ7 19-290): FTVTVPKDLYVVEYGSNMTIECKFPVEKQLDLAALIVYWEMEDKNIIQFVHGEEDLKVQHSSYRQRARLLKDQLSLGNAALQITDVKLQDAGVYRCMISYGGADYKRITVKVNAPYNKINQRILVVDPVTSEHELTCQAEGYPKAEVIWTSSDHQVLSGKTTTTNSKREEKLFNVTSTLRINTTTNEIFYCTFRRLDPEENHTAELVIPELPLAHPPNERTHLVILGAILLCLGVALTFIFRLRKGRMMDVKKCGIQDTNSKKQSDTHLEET
Experiment: flow cytometry, CHO cells expressing huPD-L1, vs WT CD80 ECD-Fc (R&D)

Binder | Fold change to WT CD80
B10 | 1.09 fold
B11 | 3.01 fold
B12 | 3.79 fold
B13 | 6.06 fold
B14 | 3.93 fold
B15 | 0.13 fold
B16 | 2.62 fold
B17 | 5.88 fold
B18 | 2.58 fold

Target: human PD-L1 (human) (UniProt Q9NZQ7)
Experiment: flow cytometry, CHO cells stably expressing PD-L1

Binder | Fold change to WT | MFI at 33.3 nM
B19 | 166 fold | 13900 MFI
B20 | 101 fold | 8460 MFI
B21 | 158 fold | 13200 MFI

Target: human PD-L1 (human) (UniProt Q9NZQ7)
Experiment: flow cytometry, MFI on PD-L1 over MFI on CD28

Binder | Ratio of PDL1:CD28
B1 | 31.1
B2 | 31.1
B3 | 14.3
B4 | 169
B5 | 75.4
B6 | 65.3
B7 | 1040
B8 | 45
B9 | 17.2

Target: human PD-L1 (human) (UniProt Q9NZQ7)
Experiment: flow cytometry, MFI on CHO/PD-L1 over MFI on Jurkat (CD28)

Binder | Ratio of PDL1:CD28
B19 | 13
B20 | 5
B21 | 863

Target: CD28 (human) (UniProt P10747)
Experiment: flow cytometry, Jurkat/IL2 reporter cells (CD28), vs WT CD80 ECD-Fc (R&D)

Binder | Fold change to WT CD80
B10 | 0.15 fold
B11 | 0.23 fold
B12 | 0.1 fold
B13 | 1.5 fold
B14 | 0.14 fold
B15 | 0.02 fold
B16 | 0.04 fold
B17 | 0.07 fold
B18 | 0.19 fold

Target: human CTLA-4 (human) (UniProt P16410)
Experiment: flow cytometry, CHO cells expressing huCTLA4, vs WT CD80 ECD-Fc (R&D)

Binder | Fold change to WT CD80
B10 | 1.59 fold
B11 | 1.57 fold
B12 | 1.91 fold
B13 | 1.74 fold
B14 | 1.37 fold
B15 | 0.03 fold
B16 | 0.74 fold
B17 | 1.74 fold
B18 | 1.64 fold

Target: human PD-L1 (human) (UniProt Q9NZQ7)
Experiment: flow cytometry, CHO cells expressing huPD-L1

Binder | MFI at 33.3 nM
B10 | 13000 MFI
B11 | 35700 MFI
B12 | 45000 MFI
B13 | 71900 MFI
B14 | 46700 MFI
B15 | 1590 MFI
B16 | 31200 MFI
B17 | 69800 MFI
B18 | 30700 MFI

Target: human PD-L1 (human) (UniProt Q9NZQ7)
Experiment: flow cytometry, CHO cells expressing PD-L1

Binder | Fold change to WT CD80 | MFI at 33.3 nM
B1 | 287 fold | 14800 MFI
B2 | 148 fold | 7620 MFI
B3 | 290 fold | 14900 MFI
B4 | 368 fold | 18900 MFI
B5 | 442 fold | 22800 MFI
B6 | 486 fold | 25000 MFI
B7 | 285 fold | 14700 MFI
B8 | 326 fold | 16800 MFI
B9 | 372 fold | 19200 MFI
